B1: Als3 (agglutinin-like sequence protein 3), isolated from the surface of C. albicans (natural protein)
chain: KTITGVFNSFNSLTWSNAATYNYKGPGTPTWNAVLGWSLDGTSASPGDTFTLNMPCVFKFTTSQTSVDLTAHGVKYATCQFQAGEEFMTFSTLTCTVSNTLTPSIKALGTVTLPLAFNVGGTGSSVDLEDSKCFTAGTNTVTFNDGGKKISINVDFERSNVDPKGYLTDSRVIPSLNKVSTLFVAPQCANGYTSGTMGFANTYGDVQIDCSNIHVGITKGLNDWNYPVSSESFSYTKTCSSNGIFITYKNVPAGYRPFVDAYISATDVNSYTLSYANEYTCAGGYWQRAPFTLRWTGYRNSDAGSNGIVIVATTRTVTDSTTAVTTLPFDPNRDKTKTIEILKPIPTTTITTSYVGVTTSYSTKTAPIGETATVIVDIPYHTTTTVTSKWTGTITSTTTHTNPTDSIDTVIVQVPSPNPTVTTTEYWSQSFATTTTITGPPGNTDTVLIREPPNHTVTTTEYWSESYTTTSTFTAPPGGTDSVIIKEPPNPTVTTTEYWSESYTTTTTVTAPPGGTDTVIIREPPNHTVTTTEYWSQSYTTTTTVIAPPGGTDSVIIREPPNPTVTTTEYWSQSYATTTTITAPPGETDTVLIREPPNHTVTTTEYWSQSYATTTTITAPPGETDTVLIREPPNHTVTTTEYWSQSYTTTTTVIAPPGGTDSVIIKEPPNPTVTTTEYWSQSYATTTTITAPPGETDTVLIREPPNHTVTTTEYWSQSYATTTTITAPPGETDTVLIREPPNHTVTTTEYWSQSFATTTTVTAPPGGTDTVIIREPPNHTVTTTEYWSQSFATTTTIIAPPGETDTVLIREPPNPTVTTTEYWSQSYTTATTVTAPPGGTDTVIIYDTMSSSEISSFSRPHYTNHTTLWSTTWVIETKTITETSCEGDKGCSWVSVSTRIVTIPNNIETPMVTNTVDTTTTESTLQSPSGIFSESGVSVETESSTFTTAQTNPSVPTTESEVVFTTKGNNGNGPYESPSTNVKSSMDENSEFTTSTAASTSTDIENETIATTGSVEASSPIISSSADETTTVTTTAESTSVIEQQTNNNGGGNAPSATSTSSPSTTTTANSDSVITSTTSTNQSQSQSNSDTQQTTLSQQMTSSLVSLHMLTTFDGS
notes: source: purified from C. albicans ATCC 10231 hyphae cell wall extract (β-1,3-glucanase and 2-mercaptoethanol; MonoQ, Superdex-200)

Legend:
Conditions in all cases: both partners purified
histone H4 = histone H4 (human, UniProt P62805 1-103); experiment: ELISA-like microplate ligand-binding assay
lactotransferrin (LF) = target: T1, lactotransferrin (LF) (human, UniProt P02788 20-710, NHS-fluorescein label in flow cytometry; sulfo-SBED crosslinker in the cross-linking experiment); experiment: SPR
T1 construct: also called lactoferrin; source: bought: Sigma
T1 sequence (P02788 20-710): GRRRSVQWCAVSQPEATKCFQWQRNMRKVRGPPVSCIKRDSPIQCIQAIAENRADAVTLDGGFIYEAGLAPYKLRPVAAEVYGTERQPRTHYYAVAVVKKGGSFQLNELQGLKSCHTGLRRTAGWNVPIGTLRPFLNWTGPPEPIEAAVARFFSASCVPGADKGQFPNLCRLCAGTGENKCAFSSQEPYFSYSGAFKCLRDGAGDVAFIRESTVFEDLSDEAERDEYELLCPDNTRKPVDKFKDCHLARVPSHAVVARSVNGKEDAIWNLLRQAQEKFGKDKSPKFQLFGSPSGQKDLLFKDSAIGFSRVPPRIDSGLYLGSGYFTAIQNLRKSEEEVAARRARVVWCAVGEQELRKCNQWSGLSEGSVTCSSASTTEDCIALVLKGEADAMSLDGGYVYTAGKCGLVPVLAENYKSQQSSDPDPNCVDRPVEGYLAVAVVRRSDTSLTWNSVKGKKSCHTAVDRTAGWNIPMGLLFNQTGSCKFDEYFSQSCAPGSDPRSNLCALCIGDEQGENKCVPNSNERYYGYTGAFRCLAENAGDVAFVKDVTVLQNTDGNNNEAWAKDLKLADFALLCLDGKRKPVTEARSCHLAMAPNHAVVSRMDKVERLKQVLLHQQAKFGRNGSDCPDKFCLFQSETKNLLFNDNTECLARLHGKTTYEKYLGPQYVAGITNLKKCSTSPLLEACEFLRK

[1] = target: B1; experiment: SPR

Binder	Kd (histone H4)	other results
B1	0.82 ± 0.33 µM	–
enolase (Eno1) (enzyme, source: purified from the cytosolic fraction of C. albicans cells (MonoQ, MonoS); for cross-linking: endogenous, in the cell wall protein extract of C. albicans hyphae) MSYATKIHARYVYDSRGNPTVEVDFTTDKGLFRSIVPSGASTGVHEALELRDGDKSKWLGKGVLKAVANVNDIIAPALIKAKIDVVDQAKIDEFLLSLDGTPNKSKLGANAILGVSLAAANAAAAAQGIPLYKHIANISNAKKGKFVLPVPFQNVLNGGSHAGGALAFQEFMIAPTGVSTFSEALRIGSEVYHNLKSLTKKKYGQSAGNVGDEGGVAPDIKTPKEALDLIMDAIDKAGYKGKVGIAMDVASSEFYKDGKYDLDFKNPESDPSKWLSGPQLADLYEQLISEYPIVSIEDPFAEDDWDAWVHFFERVGDKIQIVGDDLTVTNPTRIKTAIEKKAANALLLKVNQIGTLTESIQAANDSYAAGWGVMVSHRSGETEDTFIADLSVGLRSGQIKTGAPARSERLAKLNQILRIEEELGSEAIYAGKDFQKASQL	0.384 ± 0.13 µM	–
Phosphoglycerate mutase 1 (Gpm1), recombinant (enzyme) MPKLVLVRHGQSEWNEKNLFTGWVDVRLSETGQKEAKRAGELLKEAGINVDVLHTSKLSRAIQTANIALDAADQLYVPVKRSWRLNERHYGALQGKDKAQTLEAYGQEKFQIWRRSFDVPPPKIDPKDEYSQVGDRRYADVDPAVVPLTESLALVIDRLLPYWQDEIAGDLLAGKVVLIAAHGNSLRALVKHLDNISDEDIAGLNIPTGIPLVYELDENLKPTKPSYYLDPEAAAAGAAAVAAQGQKK	1.9 ± 0.414 µM	–
triosephosphate isomerase 1 (Tpi1) (enzyme, UniProt Q9P940 1-248, looked up, source: purified from C. albicans ATCC 10231 hyphae cell wall extract (MonoQ, Superdex-200); for cross-linking: endogenous, in that extract) MARQFFVGGNFKANGTKQQITSIIDNLNKADLPKDVEVVICPPALYLGLAVEQNKQPTVAIGAQNVFDKSCGAFTGETCASQILDVGASWTLTGHSERRTIIKESDEFIAEKTKFALDTGVKVILCIGETLEERKGGVTLDVCARQLDAVSKIVSDWSNIVVAYEPVWAIGTGLAATPEDAEETHKGIRAHLAKSIGAEQAEKTRILYGGSVNGKNAKDFKDKANVDGFLVGGASLKPEFVDIIKSRL	–	Kd (lactotransferrin (LF)): 0.163 ± 0.0002 µM
human neutrophil elastase (HNE) (enzyme, UniProt P08246 30-267, looked up, sulfo-SBED crosslinker in the cross-linking experiment; in flow cytometry preincubated or not with 10 µM N-(Methoxysuccinyl)-Ala-Ala-Pro-Val-chloromethyl ketone, source: bought: Biocentrum (Kraków, Poland)) IVGGRRARPHAWPFMVSLQLRGGHFCGATLIAPNFVMSAAHCVANVNVRAVRVVLGAHNLSRREPTRQVFAVQRIFENGYDPVNLLNDIVILQLNGSATINANVQVAQLPAQGRRLGNGVQCLAMGWGLLGRNRGIASVLQELNVTVVTSLCRRSNVCTLVRGRQAGVCFGDSGSPLVCNGLIHGIASFVRGGCASGLYPDAFAPVAQFVNWIDSIIQRSEDNPCPHPRDPDPASRTH	–	Kd [1]: 0.065 ± 0.0053 µM

Source: publication PMC8534323, “Proteinous Components of Neutrophil Extracellular Traps Are Arrested by the Cell Wall Proteins of Candida albicans during Fungal Infection, and Can Be Used in the Host Invasion” (Cells, 2021)
